{"source": "paper PMC4699771", "test_system": "T1, YhaJ (Escherichia coli EHEC O157:H7? EDL933 (amplified from TUV93-0 genomic DNA)), ORF:62819c23", "T1 sequence": "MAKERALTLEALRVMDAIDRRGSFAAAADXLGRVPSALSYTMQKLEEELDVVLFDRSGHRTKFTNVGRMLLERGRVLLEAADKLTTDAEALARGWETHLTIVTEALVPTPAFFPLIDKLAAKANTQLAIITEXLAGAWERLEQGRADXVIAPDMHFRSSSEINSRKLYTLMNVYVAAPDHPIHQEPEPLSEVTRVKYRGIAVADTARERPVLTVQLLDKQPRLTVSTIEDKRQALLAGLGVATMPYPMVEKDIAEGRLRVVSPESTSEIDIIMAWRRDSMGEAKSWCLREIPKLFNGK", "assay": "EMSA", "settings": "EMSA: Roche DIG Gel Shift Kit 2nd Gen (buffer, salt and pH not stated), 30 min at 30 C, YhaJ 0-1 uM, DIG probe diluted to 0.4 ng/ul, 6% DNA retardation gel"}
{"sequence": "CCTGCTGTAGAACTGCAATTTGCTCTATAAGCTGAATGTATGGACTTGTTGTATGTGAATTATTTTCCATATTCATAATAAATAATCTCCGCATGCTTTAATATTTTAAGCTATTAGCGACCTTATCAGGAAGGACCAACAATTAATCAAATGATATAAATTATGTGAGATAACGTTTATCTATCAAATTAGGACACATCTATTTCATCAAACAACCACCTTAAAATG (double strand) [LEE1 P2 promoter probe]", "values": [{"measurement": "binding", "value": "no binding"}]}
{"sequence": "TCGCTCAATATTTTGTAGGGCTTATTATTTTTTTCCGAGCCGCATCAAGGCGATATGCGGTCTACGTTTTTGCAGGCGAGTTATTAGAATAAAGAAATGATACGCGCGAGGTCAGAGAAAATCTTCACAATCAAGACTTTGAAATAACGGAGATGGATAAGAATTTTCTACTAAATTAATCGCAAGAGAATATTCACTCTCTATTTGCGGCAGATCACAAAAAAAAGGTGCACATTTGTGCACCCAAGGATGAAAGCTGACAGCAATGTCAGCCGCAGACCACTTTAATGGCCAGTCCGC (double strand) [pyhaO promoter probe]", "values": [{"measurement": "binding", "value": "binds"}]}
